Assay results published in the DeepSol protein solubility set.

Assay: soluble on expression in E. coli; label from the status in PepcDB or PDB records

| Sequence | soluble on expression in E. coli |
| --- | --- |
| TYAFQRRRFWETPGADGPADAAGLGLGATEHALLGAVVERPDSDEVVLTGRLSLADQPWLADHVVNGVVLFPGAGFVELVIRAGDEVGCALIEELVLAAPLVMHPGVGVQVQVVVGAADESGHRAVSVYSRGDQSQGWLLNAEGMLGVAAAETPMDLSV | soluble |
| MKRTPLFEKHVELGAKMVDFAGWEMPLYYTSIFEEVMAVRKSVGMFDVSHMGEFLVKGPEAVSFIDFLITNDFSSLPDGKAIYSVMCNENGGIIDDLVVYKVSPDEALMVVNAANIEKDFNWIKSHSKNFDVEVSNISDTTALIAFQGPKAQETLQELVEDGLEEIAYYSFRKSIVAGVETLVSRTGYTGEDGFELMLEAKNAPKVWDALMNLLRKIDGRPAGLGARDVCRLEATYLLYGQDMDENTNPFEVGLSWVVKLNKDFVGKEALLKAKEKVERKLVALELSGKRIARKGYEVLKNGERVGEITSGNFSPTLGKSIALALVSKSVKIGDQLGVVFPGGKLVEALVVKKPFYRGSVRREV | soluble |
| MAHHHHHHMESKICDPIGLDKNKFRKVEEENEENSKIVENGQMTYNDDLEMFTTIQLNQEIDIRKNPFPLHMINQKNDIPLCAQEFSKLTDPLYIKKICLEKVHDWSRCNEDDVCVNQILSGLTNQLFEVSIKEDTAIEYRITRRHVLFRIYGKDVDALYNPLSEFEVYKTMSKYRIAPLLLNTFDGGRIEEWLYGDPLSIDDLKNKSILVGIANVLGKFHTLSRKRHLPEHWDKTPCVFKMMDRWRLAVSNYKNLDKVTLDINKYIQESHKFLKFIKIYTQIENIANDIVFCHNDLQENNIMNTNKCLRLIDFEYSGYNFLSADIANFFIETTIDYSYNAYPFFIINKKNYISYESRILFVTTYLSKYLDDSTAASDQDIIDQFLEAIEVQALGLHLIWAFWSIIRGYQTKSYNEFDFFLYAKERLKMYDEQKQYLMSKNIIKDYDD | soluble |
| MALLDFFLSRKKNTANIAKERLQIIVAERRRSDAEPHYLPQLRKDILEVICKYVQIDPEMVTVQLEQKDGDISILELNVTLPEAEELK | not soluble |
| GKPFSYGASFNLTFARNRYLRYPDSPNTVEWRKRTGRSVDASVVWVAEGLFRSEEEIDNSAWYGTRPNVGDIKYKDLNGDGKIDEDDRTRVGRGNRPELTYGLNLNCAWNGFDLSAQFTGGALFDVSLTGTYYNGYDDNTVWTQAFKEGANSPLYLVQNAYTTENPNGTFPRLTLGNQGHGGDNGLASTFWLRNGRYLRLKSAQLGYTFPKKWMSPVGIQNLRIYVEGSNLFTISGLPDGIDPESPGVNNGYYPQQRTIMGGITLTF | not soluble |
| MAAKRLAVLCIFLLPNTQFRQLRLAETAEELPQLLREAEKASWTYLEFLESITRYELAKREAKSLEKRMKWARFPFVKSLDEFELRGQNVLTARQLSQLRELSWLEQQYNLILLGPPGIGKTYIAIGLGLEAVYRGFHVYFATMGELVQLLKSEEYLNKSKVQLKRIRNADLVIIDDLMYMAMDQREANLFFHLINHLYERSSIILTSNKSPEEWGHLIGDQGITTAILDRLLHRVEVIHGGENEESHRMKNRKSIFSAEVLEHHHHHH | not soluble |
| SETQEGVSKQSIRERIWDYMESHDIADFPRPVHHRIPNFKGAAQAAGHLPHLQAFHVARTIKVNPDAPQRNARFLVLESKKTLLVPTPRLRTGLFNKITPPPGATKDILRKCATSQGVRNFSVPVGLDSSVLVDLVVVGSVAVSEKGKLETGCLDVPEGYPGHSPLACVHAESLTSAPVPLTLQAFCCSVSPHGRLSVIGMGGIESLSHLNQHSVERPLPGLCGGPLMVVVIPH | not soluble |
| MGSDKIHHHHHHQSGPLRLEITEGVIEPLPFALPTFLAVGGAEDAAADVSRVIAADLRGTGLFRQIPPDAYISQITNFGAPVAYPDWQAINAQALITGQVEARADGQLVVRFRLFDVFSQAPLGEGLQFVGPADSWRRMAHTVADQVYSRITGEGGYFDTRVAFIAEEGPKNARLKRLAIMDYDGANVQFLTDSRSIVLAPRFSPQGDRILYTSYESGFPQVYIMDVATVQRRPLEAIPAETMTFSPRFSPSGQSVVFSLVDGSNTDIYSLDLATGTRRQLTQAPSIETAPSFSPDGSQIVFESDRSGNQQIYIMPADGGEARRVSAGTGRYGTPVWSPRGDYIAFTKQENGRFHIGVMRTDGSDERLLTSSFLDEGPTWAPNGRVIMFTRETPGDDGAPAVYSVDISGRNLQRVATPGMASDPAWSPLQS | not soluble |
| MDLLSLKTVTTLSDCVTIAEQDQVKIVRVIHDKASAAISLHGGHVLSFQPKGQADLLWMSSQAIYDGKAALRGGIPVCWPWFGRIAAPAHGFARNQEWKLIEHREIEQGVIVTLGLQATPESLAIWPYQFDVRLHVEIRESLTVTLDVTNTDSKAWTFSGALHTYLHVGDIRETQTSGVGTEYIDSLQNSRLCTQHGLLTLTDTIDRVYTQPEPLITVQDPALARTLTVENQGHNSAVLWNPWQQGAQSMADMNDEGYLHFLCVESTLHAPSLAEGITLQPGQNHQLVTQITSQAQ | not soluble |
| MRTIEFQAKQLLMEKLDKNLLDHAKSLTDGNGPQIVDVYGLQQLAEVHCYLKTTHQFDPAEVEALLQFADPLEAACHCWEMNTHEYSFPICDLLRETRARELFELAKPEPPAKLSVREQLRAAVKEARQNLAPEERTKGGEAR | not soluble |
| METTGDKAFYFLLKNCGHSLKFVDLRNSKRLHGRSFKLFGSQLESLYLDGSSKVDEMAFEDLCTSCGGLKELRINECYKITDENLSMIARRMEDLSILTLCGDGFKSLTSAGLIHISHMRNITELALDYNALVNDELLISISAGLPLLSSLSLANAGNDSSITAEGVSAIKNLKELTQLDASSLAAVNSKVLEQLGSLKKLEIIQLRNCTYLGDDGVRAKLRMPNIRHVDLSGSILVSNDSIQQFIKAFPSGPKLPPITLVVGGTAADASKLSVRGSRVVVDFSDYSTIVTMQTSQCSSSKFAIGGSASDAEGSDDEFEALTAQRSFYIDAVCGEEESPITDDGKLAEWAEKEARSLGLIKD | not soluble |
| IVVLHGLYMHGLVMKPLASRLRRKGHSVQVVSYNSVRINEALLFKRIRNCLSETEKNVIVGHSLGGILAVHFVNSHNDKHTPIDSIVTIGSPLQGASIAKEIQNRKLGFILGNSKEQGLVDVNQLTVDCPIGSIAGTLPIGIRSSIIRDRVPSDGTVTVEETVLPELKDHLCLNYSHTSLIYAKQTVEQIDYFIHHHEFKRV | not soluble |
| MLDQVCQLARNAGDAIMQVYDGAKPMDVVSKADNSPVTAADIAAHTVIMDGLRTLTPDIPVLSEEDPPGWEVRQHWQRYWLVDPLDGTKEFIKRNGEFTVNIALIDHGKPILGVVYAPVMNVMYSAAEGKAWKEECGVRKQIQVRDARPPLVVISRSHADAELKEYLQQLGEHQTTSIGSSLKFCLVAEGQAQLYPRFGPTNIWDTAAGHAVAAAAGAHVHDWQGKPLDYTPRESFLNPGFRVSIY | not soluble |
| MALTVAKSALEAIREKGLGGFMRMIREEGFMRCLPDGNLLQTKIHNIGATLVGVDKFGNKYYQKLGDTQYGRHRWVEYASKDRYNASQVPAEWHGWLHFITDHTGDELLSLKPKRYGLEHKENFSGEGDAYIYHSKGHTLNPGQKNWTRYQSWVPTKTQ | not soluble |
| NSSKSLEAELVRDRQELIDARKKELKAYMMMGVTAIKPLYDSDVNGSNKQAAKEILKAMRFESDGYFFAYDSQGINTLHAIKPSLEGKNLYDLKDENGVAVIAGLIDASQKGDGFLYFSWHKPTINAQAPKLGYAEYLQKWDWVLGTGIYIDDIDQQVAMQRELRTQELNQHT | soluble |
| MIVSFMVAMDENRVIGKDNNLPWRLPSELQYVKKTTMGHPLIMGRKNYEAIGRPLPGRRNIIVTRNEGYHVEGCEVAHSVEEVFELCKNEEEIFIFGGAQIYDLFLPYVDKLYITKIHHAFEGDTFFPEMDMTNWKEVFVEKGLTDEKNPYTYYYHVYEKQQLEHHHHHHHH | soluble |
| MNALARRAAGLLLSTICLPLTALAADPQPTHEFTLDNGLKVVVREDHRAPVVVSQIWYKVGSSYETPGQTGLSHALEHMMFKGSSKTGPGESSLILRDLGAEENAFTSDDYTAYYQVLARDRLSVALELEADRMATLKLPADEFGREIEVIKEERRLRTDDKPMGKAFERFKAMAYPASGYHTPTIGWMADLERMKVEELRHWYESWYTPNNATLVVVGDVQPDEVKALAERFFGPIPRRDVPPSKKPLELAEPGERKITLHVKTQLPSLIYGFNVPSVATAEDPRSANALRLIAALLDGGYSARIPTRLERGEELVSGASSRYDAFARGDSLFMISATPNMQKKKTLADVEAGIWRLLDDLKTKAPSAEELERVRAQVIAGVVYERDSITSQATMIGELETVGLSWKLMDKELEDLQSVTPQDIQKAANTYFTRERLSVAHVLPEEKAK | not soluble |
| MKEFIIKANKAVTNGEINLKDLPGSSGRLDLLCRCVNSAFFLSHDMRRDTIFYSVNYGSPNPPVALKFVGSELKRVSPDERSIALFIKKALEKDASELWKESTSGIYSSKREFRDIILEKKNEGKRIFYLHLNGKPLEDFEFKNQDDEDFLFVLGDHIGIGDEDEEFLEEIGAEKISLSPLELHADHCIILVHNILDRLK | not soluble |
| MAHHHHHHMNPQTSLTRKQCDFTKLIMAGYDLELNNGSTQDFDVMFHGPNGTAYEGGIWKVHVTLPDDYPFASPSIGFMNKLLHPNVDEASGSVCLDVINQTWTPLYSLVNVFEVFLPQLLTYPNPSDPLNSDAASLLMKDKNIYEEKVKEYVKLYASKDLWEQQKKEKKPSNINGNISPVSELSYVDQDVQDIDLDNL | soluble |
| MNRTLPLLPALALGVLLGLPASGQATCYRVTSVGSETTTSNTQIRPGEGTAGSWTGACDTCNGSLGLPSVVNVSDESFQPYPTLIASAVAPLTQYGATGGYDPERVFFRCSAGDAVYEMFSTNGDDLYSGYYTGADTVGNDIGLQDAYRTAWPNVLLRLTNVETGETITPIWKERQLSGLDIDSRGFQLVKAKNLAAVRAELYSAPLEAIRYYSPTILSQPYSYTQPAAYIAIKGPGLTAPTVGQAHVGGNWGGWYSNWPGAIGLYRYVTLKRYPTCAVMTVTPHVQFPSITLAEIDSGGVREAPFELTFKCQSGMTNGTGAGATALGIRVSSGALAASPALGLVNASGGLSYLLSDRYGEPGIARGVGIRIYRDGTPMTLLANENSAGGSNAEATGWYPAIGGATQANGGSGGIDLYRETFRARLEKLALGSQPGVTAGRVEATAQVVIRVQ | not soluble |
| MSTSGSGGGNTPDLSKENVASSPNANPKKNADTESSGGSKNNRQRRRSNTKGDGSNSRNGSRTNSVSNSKNQSNRKDWTDRKSFSQGGINVKSKSPGDDHKRTRSSNSQSAKRNARDSTRTMSQASNGEGLDYSDEYELDEPFSDSDDEDSRPKKPEKMSLTVARGRIRTLSGTVPVVGYSPRWGGPTMCVSCLEFFDLPEQISGFADHLLKEHKIVVSEMNLIVDPKRYIEHWRQRFAKESIDKIFPRIEPSEGDSYFGETDYYYLMSENVAEDRSLRQRLAMRRLEEALQCQQREREDTSFQLQCIFCRYNARGNRSKIIHHLYMIHHLNLGSPDNLVFVTEYIEHLKEKLHRNECIYCEKIFPDRNTLMDHMRKRNHREVNPKNHYYDKFYIINYLELGKRWLDVLAEDFEDTMPTFQDSDEEEEDNEWCEWQEDNLDADETRVVCLLCDASEDNAQSLLEHMKTTHEFDLLKNVSDDKLNSYQRLRLINYIRKQNYHADCWVCQKTEFENPLALQKHILEHKPLSHLPDASIWDTEENLVPIFGNDHFLWMLESILEENEITCSSDDEGESEERFSKLVLESKSNTVEGVIAEDLPELSELNEDDLNALM | not soluble |
